What was measured:
[1] = target: c-kit proto-oncogene (receptor of KL) on murine cells (murine, UniProt P05532); assay: cell-based or functional assay
[2] = target: c-kit proto-oncogene (receptor of KL) on human cells (human, UniProt P10721); assay: cell-based or functional assay

- proliferation of murine mast cells (BMMC), 3H-thymidine incorporation [1]: 10 fold
- proliferation of human cell lines (M07e), 3H-thymidine incorporation [2]: 10 fold
B1: murine covalent dimer kit ligand (KL-CD), biologically active form (ligand)
chain: MMKKTQTWIITCIYLQLLLFNPLVKTKEICGNPVTDNVKDITKLVANLPNDYMITLNYVAGMDVLPSHCWLRDMVIQLSLSLTTLLDKFSNISEGLSNYSIIDKLGKIVDDLVLCMEENAPKNIKESPKRPETRSFTPEEFFSIFNRSIDAFKDFMVASDTSDCV
modifications: at least one intermolecular disulfide bond between one of the four cysteines (4, 43, 89, 138) of one monomer and one of the four cysteines of the other monomer; which cysteines is not determined
